The values below come from the supplement of paper PMC12455559.

The nature of series [1]: melting temperature (DSF); higher = more thermostable. The protocol: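 Candidate PET hydrolases were expressed in E. coli C41(DE3) in 2 mL autoinduction cultures in 24-deep-well plates, Ni-bead purified and released by SUMO protease cleavage on an OT-2 robot. Yield per well was measured by BCA; values below 25 ug (0.1 mg/mL) are below the detection threshold. Melting temperature was measured by differential scanning fluorimetry with Sypro Orange, ramping from 25 C at 0.3 C/step.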

Series [2] can be described thus: PET hydrolysis, aromatic products released after 48 h (umol product/mg enzyme); higher = more PET depolymerization activity. Summed up:
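The measure of PET hydrolysis activity is aromatic product released into the supernatant, given per mg enzyme. Nickel-purified, SUMO-cleaved enzyme without tag was added at 5 μg (50 μL) to 3.5 mg amorphous PET film or crystalline PET powder in 450 μL of citrate, phosphate or glycine buffer spanning pH 4.5 to 8.5. After 48 h at 40 or 60 °C in sealed plates without shaking, absorbance at 260 and 280 nm was taken against buffer blanks.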

Series [3] is described as follows: purified protein yield per well (BCA); higher = higher soluble expression. Summed up: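 Purified protein yield per well is reported, as measured by the Pierce Rapid Gold BCA kit. The enzymes came from E. coli C41(DE3) autoinduction cultures of 2 mL with 100 µg/mL kanamycin, held at 37 °C for 2 h and 18 °C for 40 h, then lysed and purified on Ni-charged magnetic beads with SUMO protease release. The detection threshold is 25 ug (0.1 mg/mL), and lower values are under it.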

Setting [4] is: substrate: cryPow, 40 °C, pH 4.5.
Setting [5] is: substrate: cryPow, 40 °C, pH 5.5.
The mark [6] stands for this setting: substrate: cryPow, 40 °C, pH 6.5.
[7] abbreviates: substrate: cryPow, 40 °C, pH 7.5.
[8] abbreviates: substrate: cryPow, 60 °C, pH 4.5.
The mark [9] stands for this setting: substrate: cryPow, 60 °C, pH 5.5.
[10] abbreviates: substrate: cryPow, 60 °C, pH 6.5.
Where [11] appears, read: substrate: cryPow, 60 °C, pH 7.5.
The mark [12] stands for this setting: substrate: aFilm, 40 °C, pH 4.5.
Where [13] appears, read: substrate: aFilm, 40 °C, pH 5.5.
[14] abbreviates: substrate: aFilm, 40 °C, pH 6.5.
Where [15] appears, read: substrate: aFilm, 40 °C, pH 7.5.
Setting [16] is: substrate: aFilm, 60 °C, pH 4.5.
Setting [17] is: substrate: aFilm, 60 °C, pH 5.5.
Setting [18] is: substrate: aFilm, 60 °C, pH 6.5.
Where [19] appears, read: substrate: aFilm, 60 °C, pH 7.5.

± gives the standard deviation of the averaged measurements.

Turning to “ADNPYERGPAPTAASIAADRGPFATAQVTVPRGNGFGGGVIYYPTDTSQGTFGAIAIAPGFGTAWSYYAWQGPRLASFGFVVIGIETNTLNDYADARATQLLAALDYLVNSSPVRDRVDRNRLAVGGHSMGGGGAILAANQRPSLLTAVGQAPYVPDGSLATIKSPTIIFAGQADGTVTPQYAQNAYNTIPSSVERAYVEIANEGHGFPAGGGGGNSGAFARTMMIWMKLFIDKDTRYAPFLCPSLSNANGISKYMASCPLDPPGGGPTASPTASPTVSPTVSPSGTPPATSAIRGVGSGRCLDVNGASQANGAQAQIWDCNGQNNQKWTTTSAGELRVYGNKCLDVNGGGTADGTSVIIWDCNGQNNQKWRLNTDGTITAVGANKCLDVSGAGTANGTKVQIWTCNGQNNQKWTRT [ESM038]”, the melting temperature in series [1] amounted to 68.8 C. In addition, the PET hydrolysis in series [2] (setting [4]) was 4; in series [2] (setting [5]) it was 10; in series [2] (setting [6]), 16; in series [2] (setting [7]), 19; in series [2] (setting [8]) it was less than 3; in series [2] (setting [9]), less than 3. For the same sequence, the PET hydrolysis is 4 in series [2] (setting [10]) and 6 in series [2] (setting [11]). In addition, the “purified protein yield per well” value in series [3] was 190 µg.
In series [1], “ADNPYERGPAPTEASVEAPRGPYAVSETTVSPLAVTGFGGGTVYYPTSTADGTFGAIAVSPGYTGTQSSIAWLGPRLASQGFVVFTIDTLTTLDQPDSRGRQLLAALDYLTQKSSVRGRIDSTRLGVMGHSMGGGGSLEAAKSRPSLQAAIPLTPWNLDKTWPEVATPTLIFGADGDTIAPVATHAEPFYTSLPASLDRAYLELNGATHFTPNTSNTTIAKYSIAWLKRFIDDDTRYEQFLCPLPRPGLTIEEYRGNCPHTS [TEP117]” returned a melting temperature of 40 C. Further, the PET hydrolysis in series [2] (setting [12]), in series [2] (setting [13]), in series [2] (setting [14]), in series [2] (setting [15]), in series [2] (setting [16]) and in series [2] (setting [17]) was less than 3 each time. Also, the PET hydrolysis in series [2] (setting [18]), in series [2] (setting [19]), in series [2] (setting [4]), in series [2] (setting [5]), in series [2] (setting [6]) and in series [2] (setting [7]) was less than 3 throughout. Moreover, the PET hydrolysis in series [2] (setting [8]), in series [2] (setting [9]), in series [2] (setting [10]) and in series [2] (setting [11]) was less than 3 each time. For the same sequence, the “purified protein yield per well” value in series [3] stood at 202 µg.
In series [1], “ADNPYERGPAPTTSSIEASRGPFATASTTVSSLVSGFGGGTIYYPTSTAEGTFGAVAISPGYTGTQSSIAWLGPRIASQGFVVITIDTNTIYDQPDSRASQLLAALDYLTQSSSVRTRIDATRLGVMGHSMGGGGTLRAAESRPALQAAIPLTAWHTDKTWGNVRVPTLVIGAENDSIAPVATHSEPFYTSLPSTLDKAYLELNAADHFAPNSSNTTIAKYSISWLKRFIDNDTRYEQFLCPPPSRSLLIEEYRDTCPHS [TEP108]” showed a melting temperature of 42.1 C. For the same sequence, the PET hydrolysis in series [2] (setting [4]), in series [2] (setting [5]), in series [2] (setting [6]) and in series [2] (setting [7]) was less than 3 throughout. The “purified protein yield per well” value in series [3] turned out to be 53.3 µg.
With “ADNPYERGPDPTERSIEAARGPFGVSTERVGSLGVSDFGGATIYHPTDRSQTYGAIAISPGFTAGWTSLSWLGERLASQGFVVIGIDTITRLDQPGSRGRQLLAALDYATTRSNARALIDAQRLAVAGHSMGGGGTLEAAAERPSLKAAIPLAPWNLDKSWAEVRTPTLIIGGESDNIAAVNTHSIPFYNSLSNAREKAYMEIDNGTHFFPNTANTLMAKYMISWMKRYIDDDTRYEQFLCPPPDDRGISEYRHTCPGS [DP088]”, the melting temperature in series [1] came out at 43.9 C. The PET hydrolysis is less than 3 in series [2] (setting [5]); less than 3 in series [2] (setting [6]); less than 3 in series [2] (setting [7]); less than 3 in series [2] (substrate: cryPow, 40 °C, pH 8.5); less than 3 in series [2] (setting [9]); less than 3 in series [2] (setting [10]). For the same sequence, the PET hydrolysis in series [2] (setting [11]) is less than 3; in series [2] (substrate: cryPow, 60 °C, pH 8.5), less than 3. For the same sequence, the “purified protein yield per well” value in series [3] stood at 70 µg.
In turn, “ADNPYERGPDPTESSIEASRGPFAVSQTTVSSLAVTGFGGGTIYYPTDTSQGTFGAVAISPGYTADQSSIAWIGPRLASQGFVVFTIDTITRYDQPASRGDQLLAALDYLTQRSSVRGRIDSSRLGVAGHSMGGGGTLEAAEERPSLQAAVPLAPWNLQKNFSGVRVPTFIIGGESDTVAPVATHSEPFYTSLPSTLDKAYMELNNASHFFPNTPNTTMAKYMISWFKRFIDDDTRYDQFLCPNPSGLAIEEYRSTCPY [TEP089]” returned a melting temperature in series [1] of 44.2 C. In addition, the PET hydrolysis in series [2] (setting [4]), in series [2] (setting [5]), in series [2] (setting [6]), in series [2] (setting [7]), in series [2] (setting [8]) and in series [2] (setting [9]) was less than 3 each time. For the same sequence, the PET hydrolysis in series [2] (setting [10]) and in series [2] (setting [11]) was less than 3 in each case. The “purified protein yield per well” value in series [3] was found to be 105 µg.
“ADNPYERGPDPTPASVAAPNGPFATAQVSVPPGYGFNGGMIYYPTDTSQGTFGAIAISPGYTALFSVELAWMGPRLASQGFVVIGIETNDRNDFDTARGTQLLAALDYLTGQSSVRSRVDPNRLAVAGHSMGGGGAFSAALRRPALKAAVGFTPFSPSQNLTNMQVPALLYSGQNDTVTTPSSVSNLYNGLPSTTEGAYLEAAGLDHSFPTRPNTLLMRTMIPWVKIFLDNDLRYTQFLCPLMDSSGVLQYRNTCPLVPPGLPSPSPTTAPPTTAPPTTAPPTTAPPTTAPPTTAPPTTAPPAGACTATYQTIGSWPGGFQGEVTVRAGNSAINGWTVGWSLGSGQSITQIWNGTLSTSGSSVSVRNVSYNGSLPAAGTVTFGFLGSGSPSTPSTVTCTSP [ESM012]” gave a melting temperature in series [1] of 60.7 C. Also, the PET hydrolysis in series [2] (setting [12]), in series [2] (setting [13]), in series [2] (setting [14]), in series [2] (setting [15]), in series [2] (setting [16]) and in series [2] (setting [17]) was less than 3 throughout. The PET hydrolysis in series [2] (setting [18]) was less than 3; in series [2] (setting [19]) it was less than 3; in series [2] (setting [4]) it was less than 3; in series [2] (setting [5]), 9.5 ± 3.5; in series [2] (setting [6]), 21.5 ± 3.5; in series [2] (setting [7]) it was 21.5 ± 0.71. Besides, the PET hydrolysis in series [2] (setting [8]), in series [2] (setting [9]), in series [2] (setting [10]) and in series [2] (setting [11]) was less than 3 in each case. Moreover, the “purified protein yield per well” value in series [3] came out at 519 µg.
